# Measurements: patent US20230203482A1, “Methods of Rescuing Stop Codons via Genetic Reassignment with ACE-tRNA” (THE WISTAR INSTITUTE OF ANATOMY AND BIOLOGY, priority 2017, published 2023)
# Entries after “also recorded” stand apart in the source; their conditions may differ.
# B1: Glychr19.trna2: top performing glycine ACE-tRNA UGA suppressor, SEQ ID NO: 53 (nucleic acid)
# chain: GCGTTGGTGGTATAGTGGTTAGCATAGCTGCCTTCAAAGCAGTTGACCCGGGTTCGATTCCCGGCCAACGCA
# modifications: chemistry not fully specified
# Columns and labels:
# CFTR W1282X = experiment: Two-electrode voltage clamp of CFTR W1282X in Xenopus laevis oocytes; assay type: cell-based, human
# Experimental: (§1) In vitro cRNA transcription. G542XUGA, W1282XUGA, and WT CFTR pGEMHE (Mense et al., 2006; PMID:1703051) plasmids were linearized by 10× excess of NheI-HF restriction enzyme (site positioned 3′ of coding region)(New England BioLabs, USA) for 3 hours at 37° C. and purified using standard cDNA precipition methods. All cRNAs were transcribed using the mMessage mMachine T7 Kit (ThermoFisher Scientific; USA). Purification of the cRNA from the transcription reaction was conducted on columns from the RNeasy Mini Kit (Qiagen, Germany). Concentration was determined by absorbance measurements at 260 nm and quality was confirmed on a 1% agarose gel (RNase-free). All cRNA was queued to […] before use and all results were generated from ≥2 cRNA preparations.
# (§2) In vitro tRNA transcription. […] Equimolar concentration of T7 oligo (5)-taatacgactcactata-3′) was annealed to ACE-tRNA PAGE-purified Ultramers (20 ug; Integrated DNA Technologies, Coralville, Iowa) coding for the ACE-tRNA and preceded by a T7 promoter (italics). Importantly, the three terminal nucleotides containing CCA were included (bold).
# The total reaction volume was adjusted to 100 μl and the kit reagents were added in the following amounts: 10 μl of 10X T7-Scribe transcription buffer, 7.5 μl of each nucleotide (100 mM stocks), 10 μl of 100 mM Dithiothreitol, 2.5 μl ScriptGuard RNase Inhibitor, 10 μl T7-Scribe enzyme solution. After the reaction was incubated for 4-5 hours at 37° C., the DNA template was digested with 5 μl DNase (1 U/μl) provided with the kit for 30-60 min. The ACE-tRNA was extracted from the reaction with acidic phenol chloroform (5:1, pH 4.5) and precipitated with ethanol. […]
# (§3) Two-electrode voltage clamp (TEVC) recordings. CFTR Cl^− currents were recorded in ND96 bath solution that contained (in mM): 96 NaCl, 2 KCl, 1 MgCl2, and 5 HEPES (pH 7.5) in the presence of a maximal CFTR activation cocktail, forskolin ([…]; adenylate cyclase activator) and 3-isobutyl-1-methylxanthine (1 mM; phosphodiesterase inhibitor). […]
# CFTR G542X = experiment: Two-electrode voltage clamp of CFTR G542X in Xenopus laevis oocytes; assay type: cell-based, human; conditions: for rescued CFTR current relative to WT CFTR: compared to WT CFTR cRNA 25 ng
# Experimental: as §1, §2
# The total reaction volume was adjusted to 100 μl and the kit reagents were added in the following amounts: 10 μl of 10X T7-Scribe transcription buffer, 7.5 μl of each nucleotide (100 mM stocks), 10 μl of 100 mM Dithiothreitol, 2.5 μl ScriptGuard RNase Inhibitor, 10 μl T7-Scribe enzyme solution. After the reaction was incubated for 4-5 hours at 37° C., the DNA template was digested with 5 μl DNase (1 U/μl) provided with the kit for 30-60 min. The ACE-tRNA was extracted from the reaction with acidic phenol chloroform (5:1, pH 4.5) and precipitated with ethanol. The precipitates ACE-tRNA was pelleted, washed, dried and resuspended in 100 μl DEPC-treated water and further purified with Chrorna Spin-30 columns (Clontech, USA). The procedure yielded roughly 100 μl of ˜5 μg/μl ACE-tRNA. ACE-tRNAs were re-pelleted in 20 ug aliquots, washed, lyophilized and stored at −80° C. until use. All results were generated from ≥2 ACE-tRNA preparations.
# Expression in Xenopus laevis oocytes. Xenopus laevis oocytes (stage V and VI) were purchased from Ecocyte (Austin, Tex.). Prior to injection, each ACE-tRNA pellet was resuspended in 2 μl of ddH2O and debris was pelleted at 21,000×g, 4° C. for 25 min. […]
# as §3
Molecule,Hill coefficient (CFTR W1282X; W1282X dose response),"CFTR chloride conductance, suppression of UGA PTC (CFTR W1282X; W1282X, 200 ng ACE-tRNA co-injected, forskolin and IBMX)","rescued CFTR current relative to WT CFTR (CFTR W1282X; W1282X, compared to WT CFTR cRNA 25 ng) [%]",Hill coefficient (CFTR G542X; G542X dose response),"CFTR chloride conductance, suppression of UGA PTC (CFTR G542X; G542X, 200 ng ACE-tRNA co-injected, forskolin and IBMX)",rescued CFTR current relative to WT CFTR (CFTR G542X; G542X),"rescued CFTR current relative to WT CFTR (CFTR G542X; G542X, listed as ACE-tRNAGly)"
"Trpchr17.trna39: top performing tryptophan ACE-tRNA UGA suppressor, SEQ ID NO: 48",1.24,highly efficacious,~50,–,–,–,–
B1,–,–,–,~1.4,highly efficacious,WT-like current levels of expression,clear saturation at WT CFTR levels; also recorded: achieves WT-level of expressed CFTR current
